The RNAGym collection of RNA variant scans (doi:10.1073/pnas.2313332121)

B1: TPR t1 (parent)
chain: GACCAAUCUGCCCUCAGAGCUCGAGAACAUCUUCGGAUGCAGAGGAGGCAGGCUUCGGUGGCGCGAUAGCGCCAACGUCCUCAACCUCCAAUGCAUCCCACCACAUGAUGAUGCCUGAAGAGCCUUGGUUUUUUG

Variants of: B1
Experiment: polymerase ribozyme fitness, log enrichment relative to wild type (log ratio); higher = more active; in vitro selection for triplet polymerase activity
In short: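 Input and output libraries were sequenced on Illumina after a single in vitro selection round, run in triplicate on PCR-built, transcribed mutant libraries of each subunit of a heterodimeric triplet polymerase ribozyme. Selection annealed libraries to a biotinylated primer, the partner subunit and triplets, incubated them frozen at −7 °C, then gel-excised extended constructs for streptavidin-bead capture and RT-PCR. Genotypes with ≥10 input reads and ≥1 read per output were kept. Fitness is the logarithm, taken in base 2, of genotype enrichment divided by wild-type enrichment, using inverse-variance-weighted replicate averages.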

In order of falling “polymerase ribozyme fitness (log ratio)” value:
1. A41U G69U U78G C123U  1.47
2. A41G U112A  1.42
3. A41U C124U  0.983
4. A41U U78A U112C  0.679
5. G42U C49A G69U  0.552
6. G42C G61A C124A U125A  0.506
7. A41G G48U U112C  0.49
8. G42A G61A A83U A121U  0.412
9. A41U C123G G135U  0.204
10. A41U C124A  0.11
11. A41G G57C  -0.0815
12. A41U G69U  -0.159
13. A41G U78C C82A  -0.297
14. A41U G120C  -0.366
15. G42U C53G G69U  -0.375
16. G42C G69U A91U C102U C123U  -0.432
17. G42C G61U G120A  -0.458
18. G42C G69U A91U C102U  -0.697
19. A41G G71U  -0.756
20. G42C G44C  -0.912
21. A41G G127C  -0.942
22. A41U G57C C62U  -0.95
23. G42C C89G  -1.06
24. G42C U87G  -1.08
25. A41G G69U A74U U81A  -1.11
26. G42A A118U  -1.15
27. G42U C53G C56A  -1.17
28. G42C C53G  -1.2
29. A41U U92C  -1.21
30. G42C U87A  -1.23
31. G42A G61A  -1.27
32. G42C A74U U96G C124U  -1.27
33. G42C A111G  -1.3
34. A41U A74U  -1.31
35. A41G C73U A100U  -1.33
36. A41U C53G G77A  -1.35
37. A41U A43U  -1.37
38. G42C C72U  -1.39
39. G42C G44U U112A  -1.44
40. A41U G57U C82U  -1.52
41. A41G G45A A83C  -1.53
42. G42A C88A  -1.56
43. A41U G52C U87A  -1.57
44. A41G G57A C64U U130A  -1.6
45. A41U A46U G61A  -1.65
46. A41U G93A U112A  -1.69
47. G42C C56A  -1.76
48. G42A U55G  -1.85
49. A41U C101U  -1.85
50. A41U C62U  -1.86
51. A41U C94G  -1.87
52. G42C A84U  -1.87
53. G42C C49A  -1.88
54. G42A G77U G120C  -1.93
55. A41U U125G  -1.97
56. G42A C72A  -1.98
57. G42U A46U  -1.99
58. A41U A84C  -1.99
59. A41U C49G  -2.03
60. A41U C49U  -2.03
61. A41G G110A U125G U130G  -2.05
62. G42A C62U A83C U112A  -2.06
63. G42U A46U C62U  -2.07
64. G42A U112G  -2.1
65. G42A G61U A83U  -2.11
66. A41U C72A G113C  -2.13
67. G42C G117A  -2.18
68. G42A A46U C53A U87A  -2.21
69. G42C C115U  -2.24
70. A41U A46U C115A G120U C123G  -2.25
71. G42U A83C G127U  -2.25
72. G42A G52C  -2.26
73. A41U C70U  -2.3
74. G42C C76A U78A  -2.31
75. G42A U55A U112G C115A  -2.35
76. G42A U129G  -2.39
77. G42C G122A  -2.41
78. G42A G48U  -2.42
79. G42A C72G  -2.43
80. G42A C64U  -2.45
81. A41U G42C  -2.5
82. G42A G122A  -2.59
83. A41U G61A C82G G120A U125G  -2.63
84. G42A C88G  -2.63
85. G42A A46G G120U  -2.64
86. A41G G71U A91U  -2.66
87. A41U C62A  -2.71
88. A41U G63A  -2.73
89. G42C C89U C101G  -2.74
90. A41U G45C C72A U129C  -2.79
91. A41U G128A  -2.79
92. G42A G45C  -2.81
93. G42C U78A C85U C123G G135U  -2.89
94. A41U C114G  -2.94
95. G42U C49U  -2.98
96. G42A G113U  -3
97. A41U C114A  -3.03
98. A41U C73G  -3.06
99. A41U A43U U54G G93A U106G  -3.16
100. G42C A91G G113U  -3.17
101. G42A G61C  -3.18
102. G42A C89U G117A  -3.19
103. A41U G69C G127U  -3.25
104. A41U A46C A91G U112A  -3.27
105. G42A G48U C56U C114U U131C  -3.37
106. A41G C99U  -3.39
107. G42A G60C C82A  -3.4
108. G42C G57U U126G  -3.49
109. A41G C89G G128C  -3.51
110. A41G G47A C76A C101U  -3.57
111. A41G C85A C124U G128C U133G  -3.58
112. G42U A91C G117C  -3.63
113. G42A G110U  -3.64
114. G42A U54C G57A  -3.66
115. G42A U126G  -3.7
116. G42A G63C C86A  -3.7
117. G42C C49G C72G  -3.71
118. G42A U116A  -3.72
119. A41U G48U C104A A121G G122A  -3.77
120. G42A C62U A83U C85U C124G G128U  -3.77
121. A41U G71A U92A G127C  -3.79
122. G42A G117C  -3.8
123. A41U U116C C124U U130A  -3.9
124. G42C C102A  -4.06
125. G42U A50C C62U A84G C114G  -4.07
126. G42A C70A  -4.1
127. G42C G128U U130A G135U  -4.23
128. A41U A74C  -4.24
129. G42A C88A G110A  -4.27
130. A41U C89U U116A  -4.32
131. G42C U106A C115U G120U  -4.34
132. G42U C53U C82U G93A C99A G107U C114G C123G U125A G127A  -4.42
133. G42C C88G C114G  -4.43
134. G42A C82A A91C C115G  -4.43
135. G42A U59G C73U U112G C123A  -4.46
136. A41G G69C G117U  -4.65
137. G42A U81C U129G  -4.71
138. G42A G63C C94G U130G  -4.71
139. G42A A100C U112G  -4.73
140. G42A C70A C85U  -4.88
141. A41G G42C A46C U54A G60U G110A  -4.92
142. A41G C86A U87C G113U  -4.97
143. G42C G44A G69C C94U C114A  -5.06
144. G42C U55A G71C G113U G120U C123U U125A  -5.08
145. A41U C49A A50U U55C G60U C115U  -5.28
146. G42C U54G C88A C102A  -5.41
147. A41U C56G G69C U92A  -5.43
148. A41G G42U C73G C104A  -5.43
149. A41U C70G  -5.5
150. G42A C53U C88A C114A G127U  -5.52
151. G42C C70G  -5.52
152. G42A A66G C70U C89A U132A  -5.56
153. G42C C89U C102A  -5.66
154. A41U G61C C115A G117A  -5.8
155. G42C G63A G93C G113U  -5.92
156. G42C A50U C76G A111U  -6.27
157. A41G U87G U109A C115U  -6.39
158. G42A A43G C56A A66U A91G U96A U112G  -6.49
159. A41U C73G A103C  -6.66
160. A41U G45U C53G U55G G63U  -6.72
161. G42A C70U U81A G93U  -6.73
162. A41U C53G G58A C70U G110C U131A  -6.81
163. G42A G48A C80A U96A  -6.92
164. G42C A103G C114G G122U  -6.92
165. A41U G51A G57C C82A U96G C114U U116A  -7.09
166. A41U A46U C89G A121C  -7.24
167. A41U G58C C62A G117C U126A G128A  -7.88
